Experimental data from patent US20210388087A1 (Chugai, published 2021).
Residue numbers refer to the chain shown, from its start. One block for each binder: values may come before it.

Biological target: T1, CD3 epsilon homodimer protein (UniProt P07766 23-126)
T1 construct: also called CD3 (CD3 epsilon)
Assay: SPR, CD3 epsilon homodimer on chip, one-arm antibody as analyte;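 note: surface plasmon resonance at 25 °C with CD3 epsilon homodimer amine-coupled to a CM4 sensor chip, antibody injected as analyte, HBS-EP+ as running buffer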

T1 sequence (P07766 23-126): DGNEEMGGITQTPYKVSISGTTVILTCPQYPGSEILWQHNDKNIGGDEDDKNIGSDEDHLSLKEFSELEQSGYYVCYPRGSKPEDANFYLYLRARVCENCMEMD

B1: CE115HA000 K52E (antibody, human IgG1, kappa, L234A L235A, N297A, name in Kabat numbering)
heavy: QVQLVESGGGVVQPGRSLRLSCAASGFTFSNAWMHWVRQAPGKGLEWVAQIEAKSNNYATYYAESVKGRFTISRDDSKNSLYLQMNSLKTEDTAVYYCRYVHYGAYYGVDAWGQGTTVTVSSASTKGPSVFPLAPSSKSTSGGTAALGCLVKDYFPEPVTVSWNSGALTSGVHTFPAVLQSSGLYSLSSVVTVPSSSLGTQTYICNVNHKPSNTKVDKKVEPKSCDKTHTCPPCPAPEAAGGPSVFLFPPKPKDTLMISRTPEVTCVVVDVSHEDPEVKFNWYVDGVEVHNAKTKPREEQYASTYRVVSVLTVLHQDWLNGKEYKCKVSNKALPAPIEKTISKAKGQPREPQVYTLPPSRCELTKNQVSLSCAVKGFYPSDIAVEWESNGQPENNYKTTPPVLDSDGSFFLVSKLTVDKSRWQQGNVFSCSVMHEALHNHYTQKSLSLSPDYKDDDDK
chain: EPKSSDKTHTCPPCPAPELLGGPSVFLFPPKPKDTLMISRTPEVTCVVVDVSHEDPEVKFNWYVDGVEVHNAKTKPREEQYNSTYRVVSVLTVLHQDWLNGKEYKCKVSNKALPAPIEKTISKAKGQPREPQVCTLPPSRDELTKNQVSLWCLVKGFYPSDIAVEWESNGQPENNYKTTPPVLDSDGSFFLYSKLTVDKSRWQQGNVFSCSVMHEALHNRYTQKSLSLSP
light: DIVMTQSPLSLPVTPGEPASISCRSSQSLVHSNRNTYLHWYQQKPGQAPRLLIYKVSNRFSGVPDRFSGSGSGTDFTLKISRVEAEDVGVYYCGQGTQVPYTFGQGTKLEIKRTVAAPSVFIFPPSDEQLKSGTASVVCLLNNFYPREAKVQWKVDNALQSGNSQESVTEQDSKDSTYSLSSTLTLSKADYEKHKVYACEVTHQGLSSPVTKSFNRGEC
notes: one-arm antibody
KD ratio (KD of CE115HA000/KD of altered form): 19.4

B3: CE115HA000 K52H (antibody, human IgG1, kappa, L234A L235A, N297A, name in Kabat numbering)
heavy: B1 heavy with E52H
chain: B1 chain
light: B1 light
notes: one-arm antibody
KD ratio (KD of CE115HA000/KD of altered form): 2.65

B4: CE115HA000 K52N (antibody, human IgG1, kappa, L234A L235A, N297A, name in Kabat numbering)
heavy: B1 heavy with E52N
chain: B1 chain
light: B1 light
notes: one-arm antibody
KD ratio (KD of CE115HA000/KD of altered form): 3.29

B5: CE115HA000 K52I (antibody, human IgG1, kappa, L234A L235A, N297A, name in Kabat numbering)
heavy: B1 heavy with E52I
chain: B1 chain
light: B1 light
notes: one-arm antibody
KD ratio (KD of CE115HA000/KD of altered form): 3.54

B7: CE115HA000 K52F (antibody, human IgG1, kappa, L234A L235A, N297A, name in Kabat numbering)
heavy: B1 heavy with E52F
chain: B1 chain
light: B1 light
notes: one-arm antibody
KD ratio (KD of CE115HA000/KD of altered form): 4.04

B10: CE115HA000 K52R (antibody, human IgG1, kappa, L234A L235A, N297A, name in Kabat numbering)
heavy: B1 heavy with E52R
chain: B1 chain
light: B1 light
notes: one-arm antibody
KD ratio (KD of CE115HA000/KD of altered form): 0.8

Second part, the binder after the results:

KD ratio (KD of CE115HA000/KD of altered form): 0.58
B2: CE115HA000 K52bA (antibody, human IgG1, kappa, L234A L235A, N297A, name in Kabat numbering)
heavy: B1 heavy with E52K, K54A
chain: B1 chain
light: B1 light
notes: one-arm antibody

KD ratio (KD of CE115HA000/KD of altered form): 6.47
B6: CE115HA000 K52Y (antibody, human IgG1, kappa, L234A L235A, N297A, name in Kabat numbering)
heavy: B1 heavy with E52Y
chain: B1 chain
light: B1 light
notes: one-arm antibody

KD ratio (KD of CE115HA000/KD of altered form): 92.1
B8: CE115HA000 K52S (antibody, human IgG1, kappa, L234A L235A, N297A, name in Kabat numbering)
heavy: B1 heavy with E52S
chain: B1 chain
light: B1 light
notes: one-arm antibody

KD ratio (KD of CE115HA000/KD of altered form): 2.69
B9: CE115HA000 K52W (antibody, human IgG1, kappa, L234A L235A, N297A, name in Kabat numbering)
heavy: B1 heavy with E52W
chain: B1 chain
light: B1 light
notes: one-arm antibody
